As usually defined, the KD is the equilibrium constant for the complex coming apart.

Drawing on article PMC7255924, this text covers KD for one substance.

In this experiment the target is P1 adhesin (AgI/II, SpaP, PAc) A3VP1 polypeptide (UniProt P23504). The experiment in a line: ITC. As to conditions: pH 5; 25°C; 100 mM NaCl; pH 5: 10 mM MES; pH 6: 50 mM sodium phosphate.

For the substance “P1 adhesin (AgI/II, SpaP, PAc) C3 domain”, the KD came to 35.2 ± 7.0 µM.
